Bridge positions count the residues as written; N and C are the ends. Square brackets hold non-standard residues; d marks the D form. R8 = C=CCCCCCC[C@@](C)(N)C(=O)O; S5 = C=CCCC[C@](C)(N)C(=O)O
B1: 3ac (peptide)
peptide: EQSLXFIRXSDXLLHXV
modifications: X504, X508, X511 and X515 are (S)-2-(4-pentenyl)alanine (two staples); N-terminus acetylated; C-terminus amidated

Tests used:
[1] = biological target: RSV fusion glycoprotein F (trimeric HR1 target) on recombinant GFP-expressing RSV virus (strain A2) (RSV (strain A2), UniProt P03420 26-574); assay: cell-based or functional assay
[2] = biological target: RSV fusion glycoprotein F (trimeric HR1 target) on mCherry-expressing RSV virus (rHRSV-mCherry) (human RSV (rHRSV), strain ); assay: cell-based or functional assay

| Binder | EC50, block of RSV-GFP infection of A549 cells (flow cytometry) [1] | EC50 values [µM], rHRSV-mCherry inhibition assay in HEp-2 cells [2] |
| --- | --- | --- |
| B1 | 15.3 µM | – |
| YDPLVFPSDEFDASISQVNEKINQSLAFIRKSDEL [T108] | 20.9 µM | – |
| FDASISQVNEKINQSLAFIRKSDELLHNVNAGKST [T118] | – | 6.33 µM |
| Ac-EKINQSL[R8]FIRKSD[S5]LLHNV-NH2 (staple 8-15) [4e] | > 90 µM | – |
